{"source": "patent US20200071394A1", "about": "(HUABO BIOPHARM SHANGHAI, published 2020)", "binders": {"B1": {"name": "Chimeric antibody (mouse 7D6/5H8 VH and VL on human IgG1 and k constant regions) (antibody, V domains shown)", "VH": "QIQLVQSGPELKKPGETVKISCKASEYIFTNYGMNWVKEAPGKAFKWMGWIDTNTGEPTYAEDFKGRFAFSLDSSATSAFLQISNLKDDDTGTYFCANYGWGYFDYWGQGTTLTVSS", "VL": "DVVMTQTPLSLPVSLRDQASISCISSQSLVHSNGYTYLHWYLQKPGQSPKLLIYKVSNRFSGVPDRFSGSGSGTDFTLKISRVEAADLGVYFCSQSTHVPYTFGGGTKLEIK", "notes": "Human IgG1 heavy chain constant region and human kappa light chain constant region; Expressed in CHO-K1 cells"}, "B2": {"name": "mouse anti-human IL-17A monoclonal antibody of hybridoma 7D6/5H8 (antibody, V domains shown)", "VH": "B1 VH", "VL": "B1 VL", "notes": "Mouse antibody from hybridoma supernatant; also called original murine antibody; IL17-HC1 / IL17-LC1"}, "B3": {"name": "humanized anti-IL-17A antibody HB0017 (antibody, human IgG1, V domains shown)", "VH": "QVQLVQSGSELKKPGASVKVSCKASEYIFTNYGMNWVKQAPGQGFEWMGWIDTNTGEPTYAQGFTGRFVFSLDTSVSTAYLQISSLKAEDTATYYCANYGWGYFDYWGQGTTVTVSS", "VL": "DVVMTQTPPSLPVNPGEPASISCRSSQSLVHSNGYTYLHWYLQKPGQSPQLLIYKVSNHLSGVPDRFSGSGSGTDFTLKISWVEAEDVGVYFCSQSTHVPYTFGGGTKLEIK", "notes": "also called HB0017 antibody; HBH17 antibody"}}, "key": {"[1]": {"biological_target": "T1, Recombinant Human IL-17A, Sino Biological, 12047-HNAS (human, UniProt Q16552 24-155)", "T1 construct": "range 24-155; Bought recombinant protein; also called huIL-17A", "T1 sequence (Q16552 24-155 limits assumed, form in doubt)": "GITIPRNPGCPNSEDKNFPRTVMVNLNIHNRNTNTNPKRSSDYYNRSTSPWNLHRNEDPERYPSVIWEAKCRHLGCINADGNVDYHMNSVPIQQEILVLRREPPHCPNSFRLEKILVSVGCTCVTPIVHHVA", "assay": "indirect ELISA, human IL-17A coated", "description": "(§1) Human IL-17A was formulated into a 1 μg/ml coating solution with CBS, and added to the ELISA plate at 50 μL/well, and the plate was coated at 2 to 8° C. for 12 hours or longer. The residue coating solution was discarded, 3% milk was added, 200 μL per well, and the plate was blocked at room temperature for 1 hour. Each well was washed with not less than 200 μL of PBST, and the hybridoma supernatant was diluted to 100 μg/ml, and was 10-fold diluted for 10 gradients, and added to the plate at 100 μL/well. […] After incubating for 1 hour at room temperature, each well was added with not less than 200 μL of PBST and washed 4 times, and patted to dryness. TMB development solution was added at 100 μL per well. After reacting for 5 minutes at room temperature, the reaction was quenched by adding 2M H₂SO₄ at 50 μL/well. After the reaction was quenched, the ELISA plate was placed on a microplate reader, and the absorbance OD450 value was read at a wavelength of 450 nm."}, "[2]": {"biological_target": "T2, Recombinant Mouse IL-17A, Sino Biological, PBV10159R-010 (mouse, UniProt Q62386 26-158)", "T2 construct": "also called murine IL-17A", "T2 sequence (looked up)": "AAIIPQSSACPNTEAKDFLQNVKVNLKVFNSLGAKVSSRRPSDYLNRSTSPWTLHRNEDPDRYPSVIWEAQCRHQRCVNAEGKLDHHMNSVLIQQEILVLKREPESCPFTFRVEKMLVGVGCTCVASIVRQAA", "assay": "indirect ELISA, mouse IL-17A coated", "description": "as §1"}, "[3]": {"biological_target": "T1, Recombinant Human IL-17A, Sino …", "assay": "indirect ELISA, human IL-17A coated, hybridoma supernatant", "description": "as §1"}, "[4]": {"biological_target": "T1, Recombinant Human IL-17A, Sino …", "assay": "cell-based or functional assay"}, "[5]": {"biological_target": "T1, Recombinant Human IL-17A, Sino …", "assay": "cell-based or functional assay", "remark": "listed apart in the source"}, "[6]": {"biological_target": "T1, Recombinant Human IL-17A, Sino …", "assay": "indirect ELISA, human IL-17A coated", "remark": "listed apart in the source"}, "[7]": {"biological_target": "T3, Recombinant rat IL-17A, ABGENT, PBV10154r (rat, UniProt Q61453 18-150, limits assumed)", "T3 sequence (looked up)": "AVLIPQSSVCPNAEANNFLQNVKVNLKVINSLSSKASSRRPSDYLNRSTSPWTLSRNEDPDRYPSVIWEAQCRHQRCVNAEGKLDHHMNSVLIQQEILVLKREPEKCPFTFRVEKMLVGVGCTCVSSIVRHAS", "assay": "indirect ELISA, rat IL-17A coated"}, "[8]": {"biological_target": "T1, Recombinant Human IL-17A, Sino …", "assay": "indirect ELISA, human IL-17A coated", "remark": "listed apart in the source", "description": "as §1"}, "[9]": {"biological_target": "T2, Recombinant Mouse IL-17A, Sino …", "assay": "indirect ELISA, mouse IL-17A coated", "remark": "listed apart in the source", "description": "as §1"}, "[10]": {"biological_target": "T1, Recombinant Human IL-17A, Sino …", "assay": "indirect ELISA, human IL-17A coated", "remark": "listed apart in the source", "description": "as §1"}, "[11]": {"biological_target": "T1, Recombinant Human IL-17A, Sino …", "assay": "indirect ELISA, human IL-17A coated", "remark": "listed apart in the source", "description": "as §1"}, "[12]": {"biological_target": "T4, Recombinant Rhesus IL-17A, Sino Biological, 90306-KNAB (Rhesus, UniProt F6T3G5 24-155)", "T4 construct": "also called macaque IL-17A", "T4 sequence (F6T3G5 entry or part of it)": "as the sequence (Q16552 24-155 limits assumed, form in doubt) above, with T3A, N17T, I77V, P104R counted along it", "assay": "indirect ELISA, Rhesus IL-17A coated"}, "[13]": {"biological_target": "T5, Recombinant human IL-17B, R&D, 8129-IL (human, UniProt Q9UHF5 21-180)", "T5 sequence (looked up)": "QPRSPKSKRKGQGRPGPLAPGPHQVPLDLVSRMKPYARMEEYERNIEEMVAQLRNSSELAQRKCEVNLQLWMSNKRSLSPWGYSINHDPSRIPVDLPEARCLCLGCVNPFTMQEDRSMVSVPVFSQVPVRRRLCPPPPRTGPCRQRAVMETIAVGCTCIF", "assay": "indirect ELISA, IL-17B coated at 1 µg/ml"}, "[14]": {"biological_target": "T6, Recombinant human IL-17D, Sino Biological, 10076-H08S (human, UniProt Q8TAD2 16-202)", "T6 sequence (looked up)": "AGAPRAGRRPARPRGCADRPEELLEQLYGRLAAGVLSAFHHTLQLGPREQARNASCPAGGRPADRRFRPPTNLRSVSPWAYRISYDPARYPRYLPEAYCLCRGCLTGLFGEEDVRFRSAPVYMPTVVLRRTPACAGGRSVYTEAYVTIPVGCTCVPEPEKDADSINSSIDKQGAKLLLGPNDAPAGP", "assay": "indirect ELISA, IL-17D coated at 1 µg/ml", "description": "as §1"}, "[15]": {"biological_target": "T7, Recombinant human IL-17E, ABGENT, PBV10154r (human, UniProt Q9H293 33-177, limits assumed)", "T7 construct": "The catalogue number printed is the same as that printed for rat IL-17A; also called IL-25", "T7 sequence (looked up)": "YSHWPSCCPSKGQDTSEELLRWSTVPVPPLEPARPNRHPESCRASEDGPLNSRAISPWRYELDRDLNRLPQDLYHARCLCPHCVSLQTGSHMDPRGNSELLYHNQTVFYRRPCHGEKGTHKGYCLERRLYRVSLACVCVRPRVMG", "assay": "indirect ELISA, IL-17E coated at 1 µg/ml", "description": "as §1"}, "[16]": {"biological_target": "T1, Recombinant Human IL-17A, Sino …", "assay": "SPR (Biacore), antibody captured by anti-human antibody on the chip, IL-17A as analyte, 1:1 model", "description": "In this example, the antigen-antibody binding kinetics and affinity were determined using BIACORE method.\nHuman Antibody Capture Antiboy was amino-coupled immobilized on the Sereis S Sensor Chip CMS chip using Amine Coupling Kit, anti-Human Capture-CMS chip. The chip was placed at room temperature for 20-30 mins, and loaded into the instrument. The antigen was diluted with equilibration buffer at an initial dilution of lOnM, and was diluted for 5 concentration gradients. 2 zero concentrations (i.e., equilibration buffer) and one repeat concentration (generally the lowest concentration repeat) were set. The antibody sample was diluted to the experimental working concentration with an equilibration buffer and sealed at 2-8° C."}}, "note": "Like-named read-outs stand apart in the source and are kept apart here.", "data": [{"binder": "B1", "values": [{"measurement": "EC50", "setting": "[1]", "result": 0.0386, "unit": "µg/mL"}, {"measurement": "EC50", "setting": "[2]", "result": 0.0392, "unit": "µg/mL"}]}, {"binder": "B2", "values": [{"measurement": "EC50", "setting": "[3]", "result": 0.194, "unit": "µg/mL"}]}, {"binder": "B3", "values": [{"measurement": "biological activity (IL-6 release by HT1080 cells) against the positive control antibody", "setting": "[4]", "result": "~6", "unit": "fold"}, {"measurement": "IC50 of IL-6 release by HT1080 cells stimulated with IL-17A and TNFα", "setting": "[5]", "result": 0.09, "unit": "µg/mL"}, {"measurement": "improvement of EC50 against the chimeric antibody", "setting": "[6]", "result": "~150", "unit": "%"}, {"measurement": "improvement of EC50 against the original murine antibody", "setting": "[6]", "result": "~11.6", "unit": "times"}, {"measurement": "EC50", "setting": "[7]", "result": 0.24, "unit": "µg/mL"}, {"measurement": "EC50", "setting": "[8]", "result": 0.0154, "unit": "µg/mL"}, {"measurement": "EC50", "setting": "[9]", "result": 0.075, "unit": "µg/mL"}, {"measurement": "EC50", "setting": "[10]", "result": 0.0154, "unit": "µg/mL"}, {"measurement": "EC50", "setting": "[11]", "result": 0.0154, "unit": "µg/mL"}, {"measurement": "EC50", "setting": "[12]", "result": 0.088, "unit": "µg/mL"}, {"measurement": "binding result", "setting": "[13]", "result": "no binding"}, {"measurement": "binding result", "setting": "[14]", "result": "no binding"}, {"measurement": "binding result", "setting": "[15]", "result": "no binding"}, {"measurement": "Kd", "setting": "[16]", "result": 0.0198, "unit": "nM"}]}]}
